One block for each binder: values may come before it.
Columns and labels:
human ALPL on CHO cells = biological target: T1, human ALPL on CHO cells (human, UniProt P05186 18-501); test: flow cytometry, CHO cells stably expressing human ALPL; PDC detected with FITC anti-human Ab
T1 construct: whole, on cells; also called CHO-ALPL
T1 sequence (looked up): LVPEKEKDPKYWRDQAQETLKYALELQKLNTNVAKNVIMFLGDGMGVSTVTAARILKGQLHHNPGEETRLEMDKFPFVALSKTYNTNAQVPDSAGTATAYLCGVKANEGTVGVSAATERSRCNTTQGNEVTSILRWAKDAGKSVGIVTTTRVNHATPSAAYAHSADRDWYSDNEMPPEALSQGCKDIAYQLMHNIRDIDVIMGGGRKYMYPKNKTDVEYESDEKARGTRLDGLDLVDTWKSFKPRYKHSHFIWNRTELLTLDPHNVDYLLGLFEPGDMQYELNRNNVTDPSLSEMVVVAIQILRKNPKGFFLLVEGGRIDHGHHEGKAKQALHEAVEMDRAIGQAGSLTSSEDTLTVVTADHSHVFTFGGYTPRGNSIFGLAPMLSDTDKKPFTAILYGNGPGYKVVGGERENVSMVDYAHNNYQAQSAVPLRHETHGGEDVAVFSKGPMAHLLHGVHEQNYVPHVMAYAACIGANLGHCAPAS
Method in brief: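 Cell-surface binding to CHO cells stably transfected with human ALPP, ALPPL2, ALPI or ALPL; cells detached with 0.1% EDTA/PBS, incubated with biparatopic VHH-hFc drug conjugates over a concentration range for 1 hr on ice. Bound agent detected with FITC anti-human Ab (30 min, ice, dark) by flow cytometry; KDapp derived from binding.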

[1] = biological target: T2, human ALPPL2 on CHO cells (human, UniProt P10696 20-503); test: flow cytometry, CHO cells stably expressing human ALPPL2; PDC detected with FITC anti-human Ab
T2 construct: whole, on cells; also called CHO-ALPPL2
Description: (§1) Biparatopic VHH-hFc drug conjugates were assessed for human ALPP, ALPPL2, ALPI and ALPL cell-surface binding by flow cytometry. Binders were screened on CHO cells stably expressing human ALPP, ALPPL2, ALPI or ALPL.
(§2) Cell surface binding of test agents to hALPP isoforms was characterized in four CHO-ALPP isoform transfectant cell lines (CHO-ALPP, CHO-ALPPL2, CHO-ALPI and CHO-ALPL) and the resulting KDapp values determined. Adherent cells were detached from tissue culture flasks by incubating with 0.1% EDTA/PBS solution at 37° C. for […] or until cells detached easily. Cells were re-suspended in ice-cold PBS/2% FCS in 15 ml tubes and centrifuged at 1700 rpm for 5 mins at 4° C. Supernatant was removed and the cell pellet re-suspended in PBS/2% FCS. […] Cells were incubated with 100 μl of test agents at a range of concentrations, plus controls for 1 hr on ice. The sample plate was centrifuged at 1700 rpm for 5 mins at 4° C. The supernatant was removed, and a wash performed by re-suspending the cell pellets in 0.25 mL of ice-cold PBS/2% FCS using a multichannel pipette. Samples were again centrifuged at 1700 rpm for 5 min at 4° C. Supernatant was removed and two further washes performed as described. […] Binding of VHH-hFc agents was determined by adding 100 μl of Fitc-anti-human Ab (ThermoFisher) and incubating for 30 mins on ice in the dark. […]

[2] = biological target: T2, human ALPPL2 on CHO cells; test: flow cytometry, CHO cells stably expressing human ALPPL2; His6-tagged VHH detected with anti-His tag Ab and FITC anti-mouse Ab
Description: (§3) C-terminal His tagged VHH proteins were assessed for ALPP, ALPPL2, ALPI and ALPL cell-surface binding by flow cytometry. Binders encompassing different epitope bins were screened on CHO cells stably expressing ALPP, ALPPL2, ALPI or ALPL. High levels of cell-surface proteins expression were confirmed for each of the cell-lines by flow cytometry.
(§4) Cell surface binding of test agents to hALPP isoforms was characterized in four CHO-ALPP isoform stably transfected cell lines (CHO-ALPP, CHO-ALPPL2, CHO-ALPI and CHO-ALPL) and the resulting KDapp values determined. Adherent cells were detached from tissue culture flasks by incubating with 0.1% EDTA/PBS solution at 37° C. for ~10 minutes or until cells detached easily. Cells were re-suspended in ice-cold PBS/2% FCS in 15 ml tubes and centrifuged at 1700 rpm for 5 mins at 4° C. Supernatant was removed and the cell pellet re-suspended in PBS/2% FCS. […] Cells were incubated with 100 μl of test agents at a range of concentrations, plus controls for 1 hr on ice. The sample plate was centrifuged at 1700 rpm for 5 mins at 4° C. The supernatant was removed, and a wash performed by re-suspending the cell pellets in 0.25 mL of ice-cold PBS/2% FCS using a multichannel pipette. […] Binding of VHH (His6 tagged) agents was determined by adding 100 μl of anti-x6His tag Ab (Abcam) per cell pellet sample as appropriate and incubating on ice for 30 mins. […]

[3] = biological target: T2, human ALPPL2 on CHO cells; test: flow cytometry, CHO cells, KDapp
Description: (§5) Cell surface binding of test agents to hALPP isoforms was characterized in four CHO-ALPP isoform stably transfected cell lines (CHO-ALPP, CHO-ALPPL2, CHO-ALPI and CHO-ALPL) and the resulting KDapp values determined. Adherent cells were detached from tissue culture flasks by incubating with 0.1% EDTA/PBS solution at 37° C. for ~10 minutes or until cells detached easily. Cells were re-suspended in ice-cold PBS/2% FCS in 15 ml tubes and centrifuged at 1700 rpm for 5 mins at 4° C. Supernatant was removed and the cell pellet re-suspended in PBS/2% FCS. […] Cells were incubated with 100 μl of test agents at a range of concentrations, plus controls for 1 hr on ice. The sample plate was centrifuged at 1700 rpm for 5 mins at 4° C. The supernatant was removed, and a wash performed by re-suspending the cell pellets in 0.25 mL of ice-cold PBS/2% FCS using a multichannel pipette. Samples were again centrifuged at 1700 rpm for 5 min at 4° C. Supernatant was removed and two further washes performed as described. After the final wash and centrifugation step, excess liquid was removed by blotting the plate on tissue paper. Binding of VHH (His6 tagged) agents was determined by adding 100 μl of anti-x6His tag Ab (Abcam) per cell pellet sample as appropriate and incubating on ice for 30 mins. Wash steps were performed as described previously. Fitc-anti-mouse antibody (ThermoFisher) was used to detect binding of the VHH (His6 tagged) agents by incubating with the appropriate samples for 30 min on ice in the dark. Wash steps were performed as described previously. All cell pellets were finally re-suspended in […] of ice-cold PBS/2% FCS and left on ice in the dark prior to analysis on a Merck-Millipore Guava EasyCyte HT or Thermo Fisher Attune N×T flow cytometer.

human ALPP on CHO cells [4] = biological target: T3, human ALPP on CHO cells (human, UniProt P05187 23-506); test: flow cytometry, CHO cells, KDapp
T3 construct: whole, on cells; also called CHO-ALPP
Description: as §5

[5] = biological target: T4, Human ALPPL2 (leucine zipper) (human); test: BLI, antigen immobilised
T4 construct: Whole entry: fused with a cysteine stabilised leucine zipper and His tag; also called hALPPL2
T4 chain: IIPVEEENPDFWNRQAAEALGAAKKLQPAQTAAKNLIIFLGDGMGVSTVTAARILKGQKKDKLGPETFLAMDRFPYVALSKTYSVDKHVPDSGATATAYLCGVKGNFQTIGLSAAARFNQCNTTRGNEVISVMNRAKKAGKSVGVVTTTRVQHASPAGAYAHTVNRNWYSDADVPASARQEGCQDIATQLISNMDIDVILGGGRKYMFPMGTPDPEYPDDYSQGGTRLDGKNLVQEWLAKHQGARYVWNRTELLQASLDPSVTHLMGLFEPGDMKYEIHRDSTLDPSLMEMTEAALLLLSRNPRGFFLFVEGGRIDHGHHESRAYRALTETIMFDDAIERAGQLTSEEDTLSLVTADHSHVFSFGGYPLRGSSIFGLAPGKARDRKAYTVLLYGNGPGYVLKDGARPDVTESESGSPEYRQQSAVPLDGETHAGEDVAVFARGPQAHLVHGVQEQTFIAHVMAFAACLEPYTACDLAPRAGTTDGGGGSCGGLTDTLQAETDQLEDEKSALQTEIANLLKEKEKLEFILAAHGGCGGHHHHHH
Description: (§6) Binding kinetics were determined using the Biolayer Interferometry (BLI) Octet K2 system (Sartorius). […] All assays were conducted in PBS with a plate temperature of 25° C. Ka (M⁻¹s⁻¹), Kd (s⁻¹) and KD (nM) values were determined using Octet Data Analysis High Throughput software (ForteBio) for Biolayer Interferometry.

[6] = biological target: T5, Human ALPP (leucine zipper) (human); test: BLI, antigen immobilised
T5 construct: Whole entry: ALPP fused with a cysteine stabilised leucine zipper and His tag; also called hALPP
T5 chain: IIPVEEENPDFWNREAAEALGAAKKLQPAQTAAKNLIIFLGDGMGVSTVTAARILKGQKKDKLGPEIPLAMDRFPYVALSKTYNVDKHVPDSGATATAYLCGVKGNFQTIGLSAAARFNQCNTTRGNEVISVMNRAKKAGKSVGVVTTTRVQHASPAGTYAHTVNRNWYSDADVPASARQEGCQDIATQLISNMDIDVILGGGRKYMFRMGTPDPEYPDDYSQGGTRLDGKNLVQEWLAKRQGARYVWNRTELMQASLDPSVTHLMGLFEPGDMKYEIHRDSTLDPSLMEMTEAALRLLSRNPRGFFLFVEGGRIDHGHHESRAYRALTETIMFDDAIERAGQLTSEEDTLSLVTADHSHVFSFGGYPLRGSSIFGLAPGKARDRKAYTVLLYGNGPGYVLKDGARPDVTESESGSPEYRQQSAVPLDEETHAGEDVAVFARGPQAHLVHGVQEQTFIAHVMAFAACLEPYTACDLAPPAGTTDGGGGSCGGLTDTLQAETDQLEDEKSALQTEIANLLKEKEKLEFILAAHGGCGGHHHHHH
Description: as §6

human ALPP on CHO cells [7] = biological target: T3, human ALPP on CHO cells; test: flow cytometry, CHO cells stably expressing human ALPP; His6-tagged VHH detected with anti-His tag Ab and FITC anti-mouse Ab
Description: as §3, §4

human ALPP on CHO cells [8] = biological target: T3, human ALPP on CHO cells; test: flow cytometry, CHO cells stably expressing human ALPP; PDC detected with FITC anti-human Ab
Description: as §1, §2

binding result (human ALPL on CHO cells): no binding (tested: 350 nM)
EC50 (read off the curve) [1]: ~5 nM
B1: D10-A06 hFc-vcPAB-MMAE [G4S]3 (Fc fusion, DAR 4)
chain 1: QVQLVESGGGLVQPGGSLRLSCAASGSIFSVNTMGWYRQAPGKQRDLVAVATSGGTIHYADSVKGRFTISRDNAKNTVYLQMNSLKPEDTAVYYCNLVVPYGMIAGDHDYWGQGTKVTVSSGGGGSGGGGSGGGGSEPKSSDKTHTCPPCPAPELLGGPCVFLFPPKPKDTLMISRTPEVTCVVVDVSHEDPEVKFNWYVDGVEVHNAKTKPREEQYNSTYRVVSVLTVLHQDWLNGKEYKCKVSNKALPAPIEKTISKAKGQPREPQVYTLPPSRDELTKNQVSLYCLVKGFYPSDIAVEWESNGQPENNYKTTPPVLDSDGSFFLYSKLTVDKSRWQQGNVFSCSVMHEALHNHYTQKSLCLSPGK
chain 2: QVHLVESGGGLVQAGGSLRLSCAASGRTFLSMGWFRQAPGKEREFVAAISWTGGSTGYADSVKGRFTISRESDKETMYLQMNSLKPEDTAVYYCAARGDVYYGGDDATRYKYWGQGTQVTVSSGGGGSGGGGSGGGGSEPKSSDKTHTCPPCPAPELLGGPCVFLFPPKPKDTLMISRTPEVTCVVVDVSHEDPEVKFNWYVDGVEVHNAKTKPREEQYNSTYRVVSVLTVLHQDWLNGKEYKCKVSNKALPAPIEKTISKAKGQPREPQVYTLPPSRDELTKNQVSLTCLVKGFYPSDIAVEWESNGQPENNYKTTPPVLDSDGSFFLTSKLTVDKSRWQQGNVFSCSVMHEALHNHYTQKSLCLSPGK
modifications: MC-vc-PAB-MMAE on Cys 239 and Cys 442 (EU numbering)
notes: Biparatopic drug conjugate, DAR 4; also called #633

EC50 (read off the curve) [2]: ~5 nM
Kd [3]: 5 nM
Kd (human ALPP on CHO cells [4]): 5.3 nM
Kd [5]: 0.29 nM
koff [5]: 0.00014 s⁻¹
kon [5]: 482000 M⁻¹ s⁻¹
Kd [6]: 1.18 nM
koff [6]: 0.000191 s⁻¹
kon [6]: 162000 M⁻¹ s⁻¹
EC50 (read off the curve) (human ALPP on CHO cells [7]): ~5 nM
B2: B01 His (VHH, not shown: small tags and cut ends)
VHH: QVQLVESGGGLVQAGGSLRLSCEVTRSPMPIDTMAWYRQAPGRQRELVAIISRSGSTNYADSVKGRFTISRNDTKSTMYKSTMYLKMNTLELEDTGVYYCNAVGLWNGAEYWGQGTQVTVSS

binding result (human ALPL on CHO cells): no binding (tested: 350 nM)
EC50 (read off the curve) (human ALPP on CHO cells [8]): 10 to 22 nM
B3: D10-A06-hFc-vcPAB-MMAE [G4S]1 (Fc fusion, DAR 4)
chain 1: QVQLVESGGGLVQPGGSLRLSCAASGSIFSVNTMGWYRQAPGKQRDLVAVATSGGTIHYADSVKGRFTISRDNAKNTVYLQMNSLKPEDTAVYYCNLVVPYGMIAGDHDYWGQGTKVTVSSGGGGSEPKSSDKTHTCPPCPAPELLGGPCVFLFPPKPKDTLMISRTPEVTCVVVDVSHEDPEVKFNWYVDGVEVHNAKTKPREEQYNSTYRVVSVLTVLHQDWLNGKEYKCKVSNKALPAPIEKTISKAKGQPREPQVYTLPPSRDELTKNQVSLYCLVKGFYPSDIAVEWESNGQPENNYKTTPPVLDSDGSFFLYSKLTVDKSRWQQGNVFSCSVMHEALHNHYTQKSLCLSPGK
chain 2: QVHLVESGGGLVQAGGSLRLSCAASGRTFLSMGWFRQAPGKEREFVAAISWTGGSTGYADSVKGRFTISRESDKETMYLQMNSLKPEDTAVYYCAARGDVYYGGDDATRYKYWGQGTQVTVSSGGGGSEPKSSDKTHTCPPCPAPELLGGPCVFLFPPKPKDTLMISRTPEVTCVVVDVSHEDPEVKFNWYVDGVEVHNAKTKPREEQYNSTYRVVSVLTVLHQDWLNGKEYKCKVSNKALPAPIEKTISKAKGQPREPQVYTLPPSRDELTKNQVSLTCLVKGFYPSDIAVEWESNGQPENNYKTTPPVLDSDGSFFLTSKLTVDKSRWQQGNVFSCSVMHEALHNHYTQKSLCLSPGK
modifications: MC-vc-PAB-MMAE on Cys 239 and Cys 442 (EU numbering)
notes: Biparatopic drug conjugate, DAR 4; also called #676

Source: US20260216242A1 (ALMAC DISCOVERY, published 2026)
